Laboratory results published in patent publication US20090149389A1 (PURDUE RESEARCH FOUNDATION, published 2009).
Where no end group is shown, it is not given here. [ ]: non-standard residue; d: D form.

What was measured:
MAPKAP kinase II (MK2) [1] = molecular target: T1, MAPKAP kinase II (MK2) (UniProt P49137 1-400, limits assumed); assay: cell-based or functional assay
MAPKAP kinase II (MK2) [2] = molecular target: T1, MAPKAP kinase II (MK2); assay: cell-based or functional assay; remark: listed apart in the source

T1 sequence (P49137 whole entry): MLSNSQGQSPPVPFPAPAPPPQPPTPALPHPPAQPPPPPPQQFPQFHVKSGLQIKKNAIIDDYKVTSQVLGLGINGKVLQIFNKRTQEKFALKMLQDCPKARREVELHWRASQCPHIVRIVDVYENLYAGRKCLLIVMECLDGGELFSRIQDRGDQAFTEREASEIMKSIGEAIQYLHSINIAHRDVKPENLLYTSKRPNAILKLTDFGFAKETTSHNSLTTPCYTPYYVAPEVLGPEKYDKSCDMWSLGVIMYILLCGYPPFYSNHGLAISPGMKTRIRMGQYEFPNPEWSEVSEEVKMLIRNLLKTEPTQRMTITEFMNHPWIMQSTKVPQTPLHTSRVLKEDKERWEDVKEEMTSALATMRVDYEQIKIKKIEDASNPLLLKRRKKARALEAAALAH

WLKKIKAWLKKIKALNRQLGVVA
% of … [SEQ ID NO: 124] Reaction Velocity at an Inhibitor Concentration of 100 µM (MAPKAP kinase II (MK2) [1]): -32%

WLRRIKAWLRRIKALARQLGVA
% of Blank Reaction Velocity at an Inhibitor Concentration of 6.25pN (MAPKAP kinase II (MK2) [2]): 3.9%

WLRRIKAWLRRIKALNRQLAVA
% of Blank Reaction Velocity at an Inhibitor Concentration of 6.25pN (MAPKAP kinase II (MK2) [2]): -2.1%

KKKALNRQLGVAA
% of … [SEQ ID NO: 124] Reaction Velocity at an Inhibitor Concentration of 100 µM (MAPKAP kinase II (MK2) [1]): 91%

WLRRIKAWLRRIKALARQLAVA
% of Blank Reaction Velocity at an Inhibitor Concentration of 6.25pN (MAPKAP kinase II (MK2) [2]): 3.3%

KALNRQLGVA
% of … [SEQ ID NO: 124] Reaction Velocity at an Inhibitor Concentration of 100 µM (MAPKAP kinase II (MK2) [1]): 100%

KALNRALGVAA
% of … [SEQ ID NO: 124] Reaction Velocity at an Inhibitor Concentration of 100 µM (MAPKAP kinase II (MK2) [1]): 358%

KALNRQLGVAA
% of … [SEQ ID NO: 124] Reaction Velocity at an Inhibitor Concentration of 100 µM (MAPKAP kinase II (MK2) [1]): 100%

KALNRQAGVAA
% of … [SEQ ID NO: 124] Reaction Velocity at an Inhibitor Concentration of 100 µM (MAPKAP kinase II (MK2) [1]): 118%

KALNRQLGAAA
% of … [SEQ ID NO: 124] Reaction Velocity at an Inhibitor Concentration of 100 µM (MAPKAP kinase II (MK2) [1]): 373%

WLRRIKAWLRRIKKKALARQLAVA
% of Blank Reaction Velocity at an Inhibitor Concentration of 6.25pN (MAPKAP kinase II (MK2) [2]): 1%

KALNAQLGVAA
% of … [SEQ ID NO: 124] Reaction Velocity at an Inhibitor Concentration of 100 µM (MAPKAP kinase II (MK2) [1]): 358%

KALNRQ[dL]GVAA [KALNRQdLGVAA]
% of … [SEQ ID NO: 124] Reaction Velocity at an Inhibitor Concentration of 100 µM (MAPKAP kinase II (MK2) [1]): 357%

KALNRQLAVAA
% of … [SEQ ID NO: 124] Reaction Velocity at an Inhibitor Concentration of 100 µM (MAPKAP kinase II (MK2) [1]): 72%

KAANRQLGVAA
% of … [SEQ ID NO: 124] Reaction Velocity at an Inhibitor Concentration of 100 µM (MAPKAP kinase II (MK2) [1]): 152%
